Test results from patent US20070253950A1 (Pfizer, published 2007).

Columns and labels:
[1] = target: T1, human RAGE-Fc fusion protein (human, UniProt Q15109 23-344); assay: direct binding ELISA, receptor coated 1 µg/ml, antibody 20 µg/ml
T1 construct: amino acids 1-344 of human RAGE appended to the Fc domain of human IgG; also called hRAGE-Fc; huRAGE-Fc
Description: (§1) These receptors were chosen because they are cell-surface expressed, like RAGE, and their interaction with ligand is similarly dependent on charge. Tested receptors were rhVCAM-1, rhICAM-1-Fc, rhTLR4 (C-terminal His tag), rhNCAM-1, rhB7-H1-Fc mLox1-Fc, hLox1-Fc and hRAGE-Fc (as a positive control). ELISA plates were coated overnight with 1 μg/ml of the listed receptor proteins.

rhVCAM-1 = target: T2, rhVCAM-1 (human, UniProt P19320 25-698); assay: as above
T2 sequence (looked up): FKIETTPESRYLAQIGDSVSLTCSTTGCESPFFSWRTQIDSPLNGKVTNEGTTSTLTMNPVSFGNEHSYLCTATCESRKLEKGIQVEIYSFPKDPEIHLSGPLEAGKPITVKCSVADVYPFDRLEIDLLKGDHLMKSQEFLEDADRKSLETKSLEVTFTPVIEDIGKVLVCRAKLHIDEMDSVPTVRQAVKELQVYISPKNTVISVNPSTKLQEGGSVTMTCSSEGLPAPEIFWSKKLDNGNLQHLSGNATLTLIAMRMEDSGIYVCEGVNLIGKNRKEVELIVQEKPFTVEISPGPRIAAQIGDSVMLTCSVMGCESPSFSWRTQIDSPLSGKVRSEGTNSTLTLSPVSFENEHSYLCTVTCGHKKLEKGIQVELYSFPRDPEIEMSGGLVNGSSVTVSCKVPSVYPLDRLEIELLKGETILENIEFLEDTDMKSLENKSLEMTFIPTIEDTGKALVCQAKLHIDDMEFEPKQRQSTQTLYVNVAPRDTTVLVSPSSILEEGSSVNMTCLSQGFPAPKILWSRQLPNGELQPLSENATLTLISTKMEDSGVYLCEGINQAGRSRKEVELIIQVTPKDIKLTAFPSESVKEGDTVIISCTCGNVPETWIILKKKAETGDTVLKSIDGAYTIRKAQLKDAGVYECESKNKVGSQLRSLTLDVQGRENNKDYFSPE
Description: as §1

rhICAM-1-Fc = target: T3, rhICAM-1-Fc (human, UniProt P05362 28-480); assay: as above
T3 construct: also called rhlCAM-1-Fc
T3 sequence (P05362 28-480 limits assumed): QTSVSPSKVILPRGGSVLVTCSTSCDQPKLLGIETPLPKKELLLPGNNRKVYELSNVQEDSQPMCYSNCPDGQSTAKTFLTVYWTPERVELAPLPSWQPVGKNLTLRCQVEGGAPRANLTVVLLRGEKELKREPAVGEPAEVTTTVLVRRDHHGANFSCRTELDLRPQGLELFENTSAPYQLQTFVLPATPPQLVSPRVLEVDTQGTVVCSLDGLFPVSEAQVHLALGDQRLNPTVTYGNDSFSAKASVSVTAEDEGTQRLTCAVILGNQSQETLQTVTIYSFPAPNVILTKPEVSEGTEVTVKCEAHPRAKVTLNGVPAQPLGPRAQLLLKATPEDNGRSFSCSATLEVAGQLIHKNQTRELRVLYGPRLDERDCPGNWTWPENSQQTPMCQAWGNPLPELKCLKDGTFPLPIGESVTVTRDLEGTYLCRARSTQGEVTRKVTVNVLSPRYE
Description: as §1

rhNCAM-1 = rhNCAM-1 (human, UniProt P13591-1 20-603, limits assumed); assay: as above
Chain of rhNCAM-1 (P13591 other isoform, or with tags, fused parts or gaps limits assumed): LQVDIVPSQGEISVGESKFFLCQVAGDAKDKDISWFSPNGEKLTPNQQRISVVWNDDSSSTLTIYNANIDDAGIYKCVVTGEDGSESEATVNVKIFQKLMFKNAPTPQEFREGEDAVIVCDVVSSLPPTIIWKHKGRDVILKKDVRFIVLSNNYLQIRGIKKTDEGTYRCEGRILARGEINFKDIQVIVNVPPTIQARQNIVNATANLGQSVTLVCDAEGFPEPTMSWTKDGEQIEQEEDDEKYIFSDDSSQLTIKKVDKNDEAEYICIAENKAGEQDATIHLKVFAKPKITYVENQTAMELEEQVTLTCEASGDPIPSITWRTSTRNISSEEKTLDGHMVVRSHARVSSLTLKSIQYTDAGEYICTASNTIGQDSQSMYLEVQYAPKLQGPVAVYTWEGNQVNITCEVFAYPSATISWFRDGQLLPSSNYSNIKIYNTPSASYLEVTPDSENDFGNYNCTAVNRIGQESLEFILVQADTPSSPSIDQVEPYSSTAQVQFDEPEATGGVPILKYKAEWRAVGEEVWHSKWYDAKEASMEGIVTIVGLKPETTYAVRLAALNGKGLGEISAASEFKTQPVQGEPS
Description: as §1

rhB7-H1-Fc = rhB7-H1-Fc (human, UniProt Q9NZQ7 19-239); assay: as above
Chain of rhB7-H1-Fc (Q9NZQ7 19-239 limits assumed): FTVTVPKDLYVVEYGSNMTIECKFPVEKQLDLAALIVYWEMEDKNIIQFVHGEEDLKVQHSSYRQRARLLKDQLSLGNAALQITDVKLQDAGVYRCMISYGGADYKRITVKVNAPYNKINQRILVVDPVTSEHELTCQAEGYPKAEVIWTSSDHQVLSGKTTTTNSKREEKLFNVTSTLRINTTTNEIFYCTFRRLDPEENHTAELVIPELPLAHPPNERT
Description: as §1

mLox1-Fc = mLox1-Fc (mouse, UniProt Q9EQ09 60-363, limits assumed); assay: as above
Chain of mLox1-Fc (Q9EQ09 60-363 limits assumed): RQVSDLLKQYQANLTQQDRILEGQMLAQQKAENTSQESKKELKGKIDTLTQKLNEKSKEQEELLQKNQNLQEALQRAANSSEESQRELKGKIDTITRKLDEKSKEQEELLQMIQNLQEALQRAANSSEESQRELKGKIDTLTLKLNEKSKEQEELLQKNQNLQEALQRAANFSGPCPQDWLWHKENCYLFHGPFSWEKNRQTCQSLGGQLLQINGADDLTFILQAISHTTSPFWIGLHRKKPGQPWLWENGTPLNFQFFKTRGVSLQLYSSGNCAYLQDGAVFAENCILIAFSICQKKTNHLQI
Description: as §1

hLox1-Fc = hLox1-Fc (human, UniProt P78380 61-273); assay: as above
Description: as §1

[2] = target: T1, human RAGE-Fc fusion protein; assay: antibody competition ELISA on hRAGE-Fc; competitor: biotinylated XT-M4
Description: ELISA plates were coated overnight with 1 ug/ml human RAGE-Fc. […] Briefly, plates were coated overnight with 1 ug/ml human RAGE-Fc.

[3] = target: T1, human RAGE-Fc fusion protein; assay: ligand competition ELISA, panel 'Blocks hRAGE-Fc interaction with HMGB1'; blocked ligand HMGB1
[4] = target: T1, human RAGE-Fc fusion protein; assay: ligand competition ELISA, panel 'Blocks hRAGE-Fc interaction with S100-A'; blocked ligand S100-A
[5] = target: T4, human RAGE-strep tag fusion protein (human, UniProt Q15109 23-344); assay: BIACORE capture assay: hRAGE-SA over antibody captured on anti-human Fc; 1:1 Langmuir global fit; FC2
T4 construct: monomeric soluble human RAGE; also called hRAGE-SA; soluble human streptavidin-tagged RAGE
Description: (§2) The assays were performed by coating anti-human Fc antibodies onto a CM5 BIA chip with 5000 RU (pH 5.0, 7 min.) in flow cells 1-4. Each antibody was captured by flowing at 2.0 μg/ml over the anti-Fc antibodies in flow cells 2-4 (flow cell 1 was used as a reference).

[6] = target: T4, human RAGE-strep tag fusion protein; assay: BIACORE capture assay: hRAGE-SA over antibody captured on anti-human Fc; 1:1 Langmuir global fit; FC4
Description: as §2

[7] = target: T4, human RAGE-strep tag fusion protein; assay: BIACORE capture assay: hRAGE-SA over antibody captured on anti-human Fc; 1:1 Langmuir global fit; average of FC2-FC4
Description: as §2

[8] = target: T5, murine RAGE-strep tag fusion protein (murine, UniProt Q62151 23-343); assay: BIACORE capture assay: mRAGE-SA (SA-Mu RAGE) over antibody captured on anti-human Fc; 1:1 Langmuir global fit; average of FC2-FC4
T5 construct: also called mRAGE-strep; mRAGE-SA
T5 chain: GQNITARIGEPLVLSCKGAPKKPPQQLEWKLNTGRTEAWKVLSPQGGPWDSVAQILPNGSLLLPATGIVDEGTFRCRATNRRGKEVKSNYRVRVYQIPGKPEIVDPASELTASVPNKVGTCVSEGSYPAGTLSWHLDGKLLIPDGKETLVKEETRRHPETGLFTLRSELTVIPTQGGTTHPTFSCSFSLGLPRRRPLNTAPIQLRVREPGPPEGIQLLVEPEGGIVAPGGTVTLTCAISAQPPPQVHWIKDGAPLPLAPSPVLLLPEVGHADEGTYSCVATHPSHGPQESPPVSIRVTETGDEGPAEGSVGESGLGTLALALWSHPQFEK
Description: as §2

OD450 [1]: 3.8
OD450 (rhVCAM-1): 0.004
OD450 (rhICAM-1-Fc): 0.004
OD450 (rhNCAM-1): 0.006
OD450 (rhB7-H1-Fc): 0.003
OD450 (mLox1-Fc): 0.01
OD450 (hLox1-Fc): 0.017
IC50 (read off the curve) [2]: ~0.4 µg/mL
IC50 (read off the curve) [3]: ~0.1 µg/mL
IC50 (read off the curve) [4]: ~0.08 µg/mL
Kd [5]: 8.2 nM
koff [5]: 0.0281 s⁻¹
kon [5]: 3.42e+06 M⁻¹ s⁻¹
Kd [6]: 8.2 nM
koff [6]: 0.05 s⁻¹
kon [6]: 6.1e+06 M⁻¹ s⁻¹
Kd [7]: 7.91 nM
koff [7]: 0.0351 s⁻¹
kon [7]: 4.41e+06 M⁻¹ s⁻¹
Kd [8]: 1.9 nM
koff [8]: 0.0041 s⁻¹
kon [8]: 2.1e+06 M⁻¹ s⁻¹
B1: chimeric XT-M4 (antibody, V domains shown)
VH: EVQLVESGGGLVQPGRSLKLSCVVSGFTFNNYWMTWIRQTPGKGLEWVASINNSGDNTYYPDSVKDRFTISRDNAKSTLYLQMNSLRSEDTATYYCTRGGDITTGFDYWGQGVMVTVSS
VL: DIQMTQSPSSMSVSLGDTITITCRASQDVGIYVNWFQQKPGKSPRRMIYRATNLADGVPSRFSGSRSGSIYSLTISSLESEDVADYHCLEFDEHPLTFGSGTKVEIK
modifications: N-linked oligosaccharide at Asn52 (CDR2) on part of the heavy chains
notes: rat XT-M4 variable regions fused to human kappa light chain and human IgG1 heavy chain constant regions; L234A and G237A in the human IgG1 Fc region; also called chimeric antibody XT-M4; XT-M4-A-1
